B1: JR069 (antibody, V domains shown)
VH: EVQLVESGGGLVQPGGSLRLSCAASGFSFSNYDMLWLRQITGRGLEWVSLIGTSGDTYYSDSVKGRFTISRENGKNSLYLQMNRLRAGDTAVYYCARGNFDTSGFYSYFDTWGQGTLVTVSS
VL: DIQLTQSPSYLSASVGDRVTITCRASQTIKNYLNWYQQKPGKAPKLLIYAVSTLQNGVSSRFRGSGSGTDFTLTISSLQPEDFATYYCQQSYTIPPYTFGQGTKLEIK
B2: JR325 (antibody, V domains shown)
VH: QVQLQESGPGLVKPSQTLSLTCTVSGGSISSSDYYWSWIRQHPGKGLEWIGFIFYSGTTYYSPALKSRVSISVDTSKSQFSLKLHSVTAADTAVYYCARFSRNLGLNWFDPWGQGTLVTVSS
VL: QFVLTQPASVSGSPGQSITISCTGTSSDIGSYDLVSWYQQYPGKAPKLIIYEVNKRPSGVSSRFSGSKSGNTASLTISGLLAEDEADYYCCSYAGPNTVLFGGGTILTV
B3: JR068 (antibody, V domains shown)
VH: QVQLQESGPGLVKPSQTLSLTCTVFGGSIRSGDYYWSWIRQPPGKGLEWMGYIYSSGSAYYNPSLESRVTISIDASKNQFSLKVNSVTAADTAVYYCARDGFWFGFGSFDIWGLGTMVTVSS
VL: EIVMTQSPATLSVSPGERAALSCRASQSVSSNLAWYQQRVGQAPRLLIYGASTRATGIPARFSGSGSGTEFTLTISSLQSEDFAVYYCQQYNNWPPLTFGGGTKVEIK
B4: JR065 (antibody, V domains shown)
VH: VQLVESGGGVAQPGRSLRLSCAASGFTFSHYGMHWVRQGPGKGLEWVAGISFDGSDKYYADSVKGRFTISRDNSKNTFYLQMNSLRTDDTAVFYCAKQGFGYGSGWYYFDYWGQGTLVTVSS
VL: IRMTQSPSSLSASVGDRVTITCQASQDISKYLNWYQQRPGKAPKPLIYDASNLETGVPSRFSGSGSGTDFTLTITNLQPEDIATYYCQQYDNVPSVTFGQGTRLEIK
B5: JR204 (antibody, V domains shown)
VH: QVQLQESDPGLVTPSETLSLTCTVSGASVSSGSDYWNWIRQPPGKGLEWIGYIYYTGRTNYNPSLKSRVTISVDTSKNQFSLKLSSVTAADTAVYYCAREVIVLPAALPPFGLDVWGQGTTVTVSS
VL: SYELTQPPSVSVAPGKTARITCGGNNIGTKSVHWYQQKPGQAPVLVVYDDSDRPSGIPERFSGSNSENTATLTISRVEAGDEADYSCQVWDSSGDHVVFGGGTKLTVL
B6: JR154 (antibody, V domains shown)
VH: EVQLVESGGGLVQPGRSLRLSCEASGFIFDDYAMHWVRQGPGKGLEWVSGITSNSGSMGYADSVKGRFTISRDNAKNSLYLQMNSLRPEDTAFYYCAKDMVSGVFLWFGELENWGQGTLVTVS
VL: QSVLTQPPSASGTPGQRVTISCYGSRSNFGTNTVNWYQQLPGMAPRLLIHSHNQRPSGVPARFSGSKSGTSASLAISGLQSEDEAHYYCASWDGGLNAVVFGGGTKLIVL
B7: JR150 (antibody, V domains shown)
VH: QVQLVQSGAEVKKPGASVKVSCKASRYTFASYYMHWVRQAPGQGLEWMGIINPGGGSTSYAQNFQGRVSMTSDTSTSTVYMELRSLRSEDTAVYYCARDSEFVPTAHGAFEIWGQGTMVTVSS
VL: EIVLTQSPATLSLSPGERATLSCRASQSVSSYLAWYQQKPGQAPRLLIYDASNRATGIPARFSGSGSGTDFTLTISSLEPEDFAVYYCQQRSNWLVTFGGGTKVEIK
B8: JR072 (antibody, V domains shown)
VH: VQLVESGGGVVQPGRSLRLSCAASGFTFSTYGMHWVRQAPGKGLEWVAGISYDGSDKYYGDSVRGRFTVSRDNSKNTLYLQMNSLRAEDTAVYYCAKGQGPYCSAGNCYTHYFDYWGQGTLVTVSS
VL: EIVLTQSPATLSLSPGERATLSCRASQSVGNYLAWYQQKPGQAPRLLIDDASNRAAGTPARFSGSGSGTDFTLTISSLEPEDFAVYYCQQRSNWPPITFGQGTRLEIK
B9: JR340 (antibody, V domains shown)
VH: EVQLVESGGGLVQPGRSLRLSCTASGFTFHDYALQWVRQVPGKGLEWVSGISWNSASTGYADSVKGRFTISRDNAKNSLYLQMNSLRAEDTALYYCAKVRSTSCYLACGMDVWGQGTTVTVSS
VL: QSALTQPASVSGSPGQSITISCTGTSSDVGSYNLVSWYQQHPGKAPKLMISEVSKRPSGVSNRFSGSKSGNTASLTISGLQAEDEADYYCCSYALSRILFGGGTKLTVL
B10: JR077 (antibody, V domains shown)
VH: EVQLVESGGGLVQPGGSLRLSCAASGFTFSDYDMHWVRQVTGKGLEWVSAVGTRGDTYYAASVKGRFTISRENAKNSLYLQMNSLRAGDTAVYYCARVGYDSTGFYYYFDYWGQGTLVTVSS
VL: DIQLTQSPSSLSASVGDRVTITCRASQRIGRFLNWYQQKPGKAPKLLIYIVSSLQSGVPSRFSGSGSGTDFTLTINSLQPEDFATYYCQQTYNMPPITFGQGTRLEIK
B11: JR195 (antibody, V domains shown)
VH: EVQLVESGGGLVQPGRSLRLSCAASGFTFDDYTMHWVRQAPGKGLEWVSAISWNSDALGYADSVKGRFTISRDNAKNSLYLQMNSLRPEDTALYYCAKDIDFGGSGSFDVFHIWGHGTMVTVS
VL: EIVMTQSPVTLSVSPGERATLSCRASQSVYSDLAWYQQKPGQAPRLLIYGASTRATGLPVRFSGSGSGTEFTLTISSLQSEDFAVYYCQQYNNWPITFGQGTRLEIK
B12: JR078 (antibody, V domains shown)
VH: VQLVESGGGVVQPGRSLRLSCAASGFIFRSYGMNWVRQAPGKGLEWVAVMSYDGNDKDYADSVKGRFTISRDDSKNTLYLQMNSLRAEDTAVYYCAKSGGLYCSGGNCYSNYFDYWGRGTLVTVSS
VL: EIVLTQSPGTLSLSPGERATLSCRASQSVSSSYLAWYQQKPGQAPRLLISGASSRAAGIPDRFSGSGSGTDFTLTISRLAPEDFAVYYCQQYGYSLTFGGGTKVEIK
B13: JN105 (antibody, V domains shown)
VH: QVQLVQSGAEVKKPGASVKVSCKASGYTFTSYGISWVRQAPGQGLEWMGWISAYNGNTNYAQKLQGRVTMTTDTSTSTAYMELRSLRSDDTAVYYCARDLQRAGPWADYDFWSGYYPPSNMDVWGQGTTVTVSS
VL: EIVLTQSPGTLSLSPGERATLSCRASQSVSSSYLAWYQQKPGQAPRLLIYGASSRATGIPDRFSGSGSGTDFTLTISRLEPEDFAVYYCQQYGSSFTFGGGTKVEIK
B14: JN007 (antibody, V domains shown)
VH: EVQLVESGGGLIQPGGSLRLSCAASGFTVSSNYMSWVRQAPGKGLEWVSVIYTGGSTYYADSVKGRFTISRDNSNNSLYLRMNSLRAEDTAVYYCARGPYYDFRSGYSPGWFDPWGQGTLVTVSS
VL: not shown
B15: JN109 (antibody, V domains shown)
VH: QVQLVESGGGVVQPGRSLRLSCAASGFTFSSYGMHWVRQAPGKGLEWVAVIWYDGSNKYYADSVKGRFTISRDNSKNTLYLQMNSLRAEDTAVYYCARVRTIFRPLDYMDVWGKGTTVTVSS
VL: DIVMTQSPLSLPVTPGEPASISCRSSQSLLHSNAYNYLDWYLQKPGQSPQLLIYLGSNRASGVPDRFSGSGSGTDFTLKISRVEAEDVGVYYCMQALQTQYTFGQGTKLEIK
B16: JN115 (antibody, V domains shown)
VH: QVQLVQSGAEVRKPGASVKVSCKVSGYTLIDLSIHWVRQAPGKGLEWMGGFDPEDGETIYAQKFQGRVTMTEDTSTDTAYMELSSLRSEDTAVYYCATSSSIVISGWFDPWGQGTLVTVSS
VL: QSALTQPASVSGSPGQSITISCTGTSSDVSGYNYVSWYQQHPGKVPKLLIYDVSNRPSGVSNRFSGSKSGNTASLTISGLQAEDEADYYCSSYTSSSTLVYVFGTGTKVTVL
B17: JN110 (antibody, V domains shown)
VH: QVQLVQSGAEVKKPGSSVKVSCKASGGTFSSYAISWVRQAPGQGLEWMGGIIPIFGTANYAQKFQGRVTITADKSTSTAYMELSSLRSEDTAVYYCARDPAFYYDILTGYGGYYYYGMDVWGQGTTVTVSS
VL: DIVMTQTPLSLSVTPGQPASISCKSSQSLLHSDGKTYLYWYLQKPGQPPQLLIYEVSNRFSGVPDRFSGSGSGTDFTLKISRVEAEDVGVYYCMQSIQLPPTFGQGTKVEIK
B18: JN117 (antibody, V domains shown)
VH: QVQLVQSGAEVKKPGASVKVSCKASGYTFTSYDINWVRQATGQGLEWMGWMNPNSGNTGYAQKFQGRVTMTRNTSISTAYMELSSLRSEDTAVYYCALGTTPWYYFDYWGQGTLVTVSS
VL: SYELTQPPSVSVSPGQTARITCSGDALPKQYAYWYQQKPGQAPVLVIYKDSERPSGIPERFSGSSSGTTVTLTISGVQAEDEADYYCQSADSSGTYVFGTGTKVTVL
B19: JN103 (antibody, V domains shown)
VH: EVQLVKSGGGLIQPGGSLRLSCAASGFTVSSNYMSWVRQAPGKGLEWVSVIYSGGSTYYADSVKGRFTISRDNSKNTLYLQMNSLRAEDTAVYYCARDLYSSGGTDIWGQGTMVTVSS
VL: QTVVTQEPSFSVSPGGTVTLTCGLTSGSVSTSHYPSWYQQTPGQAPRTLIDSTNIRSFGVPDRFSGSILGNKAALTITGAQADDEADYYCILYVGNGIWMFGGGTRLTVL
B20: JN104 (antibody, V domains shown)
VH: QVQLQESGPGLVKPSGTLSLTCAVSGGSISSNKWWSWVRQPPGKGLEWIGEIYHSGSTNYNPSLKSRVTISVDKSKNQFSLKLSSVTAADTAVYYCAILRYGSGSSLPPDNWGQGTLVTVSS
VL: EIVMTQSPATLSVSPGERATLSCRASQIISNNLAWHQQKPGQAPRLLIYGASTRATGIPARFSGSGSGTEFTLTISSLQSEDFAVYYCQQYNNWPPLLTFGGGTKVEIK

molecular target: T1, SARS-CoV-2 Wuhan-Hu-1 RBD (SARS-CoV-2, Wuhan-Hu-1 (GenBank …, UniProt P0DTC2)); assay: BLI; details: both partners purified

Binder | binding result
B1 | binds
B2 | binds
B3 | binds
B4 | binds
B5 | binds
B6 | binds
B7 | binds
B8 | binds
B9 | binds
B10 | binds
B11 | binds
B12 | binds

molecular target: T1, SARS-CoV-2 Wuhan-Hu-1 RBD; assay: cell-based or functional assay; details: not given

Binder | neutralisation IC50, Wuhan-Hu-1 pseudovirus
B1 | > 1 µg/mL
B2 | > 1 µg/mL
B3 | > 1 µg/mL
B4 | > 1 µg/mL
B5 | > 1 µg/mL
B6 | > 1 µg/mL
B7 | > 1 µg/mL
B8 | > 1 µg/mL
B9 | > 1 µg/mL
B10 | > 1 µg/mL
B11 | > 1 µg/mL
B12 | > 1 µg/mL

molecular target: SARS-CoV-2 Wuhan-Hu-1 NTD (SARS-CoV-2, UniProt P0DTC2 14-307); assay: cell-based or functional assay; details: not given

Binder | neutralisation IC50, WT (293TAce2)
B13 | > 1 µg/mL
B14 | > 1 µg/mL
B15 | > 1 µg/mL
B16 | > 1 µg/mL
B17 | > 1 µg/mL
B18 | > 1 µg/mL
B19 | > 1 µg/mL
B20 | > 1 µg/mL
